These results are taken from EP4729537A1, “B-LACTAMASE-INHIBITING ANTIBODY AND USE THEREOF IN THE TREATMENT AND/OR PREVENTION OF INFECTIONS CAUSED BY B-LACTAMASE-PRODUCING BACTERIA” (priority 2023, dated 2024).

Several values for one entry are separate records, joined by “and”; a condition that tells them apart may be missing. Equal entries are not always repeated.

Usually Km stands for the substrate concentration at which the rate is half of its maximum.

The subject of data set [1] is O=C(Cc1cccs1)N[C@@H]1C(=O)N2C(C(=O)O)=C(/C=C/c3ccc([N+](=O)[O-])cc3[N+](=O)[O-])CS[C@H]12. As to the kind of experiment: nitrocefin hydrolysis assay with E. coli BL21(DE3) cells expressing the β-lactamase in the periplasm. The data set is classed as cell-based, Klebsiella pneumoniae. The conditions noted are these: other: E. coli cells, control without antibody (controls of the B2 and B5 runs).
Experimental: (§1) An in vivo assay was conducted to test the inhibitory capacity of four β-lactamases from three resistant microorganisms: BlaMab from Mycobacterium abscessus, KPC-2 (UNIPROT Q9F663) and OXA-48 (UNIPROT Q6XEC0) from Klebsiella pneumoniae, and VIM-2 (UNIPROT B8QIQ9) from Pseudomonas aeruginosa. The assay utilized BL21(DE3) strain cells of Escherichia coli transformed with the expression vector pET26b(+) along with the gene sequence of each β-lactamase. Cells successfully transformed with the vector and insert were selected using a Kanamycin resistance gene (KanR) present in the vector. […] Additionally, the pET26b(+) vector has an IPTG-inducible promoter to activate the translation of the corresponding β-lactamase. The plasmid also includes a pelB export signal directing the β-lactamase to the periplasmic space of the bacteria for the inhibition assay with Ndis (nanobodies, single-domain antibodies).
(§2) This compound changes color from yellow to red when hydrolyzed by β-lactamase, which can be quantified by measuring absorbance at 490nm.

The test system is the same in data set [2]. Described as above. Format: cell-based, Pseudomonas aeruginosa. The conditions noted are these: other: E. coli cells, control without antibody (controls of the B2 and B5 runs).
Experimental: as §1, §2

For the substance “OXA-48 (UNIPROT Q6XEC0) from Klebsiella pneumoniae (Klebsiella pneumoniae)”, in data set [1], the Km is 4.48 µM.

In the case of “VIM-2 (UNIPROT B8QIQ9) from Pseudomonas aeruginosa (Pseudomonas aeruginosa)”, in data set [2], the Km was 4.35 µM and 6.75 µM.
